What was measured:
[1] = Thioflavin T fluorescence of protein solutions; format: physicochemical; conditions: initial, compared with native β2GPI purified from plasma
Experimental: Fluorescence of ThT—protein/peptide adducts was measured as follows. […] Fluorescence was measured at 485 nm upon excitation at 435 nm. Background signals from buffer, buffer with ThT and protein/peptide solution without ThT were subtracted from corresponding measurements with protein solution incubated with ThT. Regularly, fluorescence of Aβ was used as a positive control, and fluorescence of FP10, a non-amyloid fibrin fragment^16, was used as a negative control. Fluorescence was measured in triplicate on a Hitachi F-4500 fluorescence spectrophotometer (Ltd., Tokyo, Japan).
Formulated protein therapeutics were obtained from the local hospital pharmacy and were used as supplied by the manufacturers. […] Lyophilized therapeutics were dissolved according to the manufacturers recommendations. GH, zinc-insulin, Cealb and gelatin were stored at −20, 4, room temperature, 37 and 65° C. Other protein therapeutics were only kept at 4° C., and assayed for the presence of cross-β structure at shown time points. Enhancement in fluorescence of ThT and Congo red was measured with all formulated protein therapeutics. […]
ThT fluorescence of β2GPI was measured as follows. […] In the ThT fluorescence assay, fluorescence of β2GPI in buffer, of CL or DXS500k in buffer, of buffer and ThT alone, and of β2GPI-CL adducts and β2GPI-DXS500k adducts, with or without ThT, was recorded as described above (section ThT fluorescence). In addition, TEM images were recorded with CL, β2GPI from human plasma, with or without CL, and with recombinant β2GPI, as described^5.
To prepare structurally altered ovalbumin (OVA) with amyloid cross-β structures, purified OVA (Sigma, A-7641, lot 071k7094) was heated to 85° C. […] Native OVA (nOVA) and heat-denatured OVA (dOVA) were tested in the ThT fluorescence assay and in the Plg-activation assay. In the fluorescence assay and in the Plg-activation assay, 25 and 100 μg ml^−1 nOVA and dOVA were tested, respectively. […]
MSA (#126674, Calbiochem) was dissolved in 8 M urea, 100 mM Tris-HCl pH 8.2, at 10 mg ml^−1 final concentration. […] The presence of aggregates or fibrils was analyzed using TEM. […]

[2] = biological target: T1, factor XII (Homo sapiens, UniProt P00748); assay: ELISA, binding of β2GPI to immobilized factor XII
T1 construct: purified human factor XII from plasma (Calbiochem); purchased Calbiochem; host or cells: human plasma
T1 sequence (P00748 20-615): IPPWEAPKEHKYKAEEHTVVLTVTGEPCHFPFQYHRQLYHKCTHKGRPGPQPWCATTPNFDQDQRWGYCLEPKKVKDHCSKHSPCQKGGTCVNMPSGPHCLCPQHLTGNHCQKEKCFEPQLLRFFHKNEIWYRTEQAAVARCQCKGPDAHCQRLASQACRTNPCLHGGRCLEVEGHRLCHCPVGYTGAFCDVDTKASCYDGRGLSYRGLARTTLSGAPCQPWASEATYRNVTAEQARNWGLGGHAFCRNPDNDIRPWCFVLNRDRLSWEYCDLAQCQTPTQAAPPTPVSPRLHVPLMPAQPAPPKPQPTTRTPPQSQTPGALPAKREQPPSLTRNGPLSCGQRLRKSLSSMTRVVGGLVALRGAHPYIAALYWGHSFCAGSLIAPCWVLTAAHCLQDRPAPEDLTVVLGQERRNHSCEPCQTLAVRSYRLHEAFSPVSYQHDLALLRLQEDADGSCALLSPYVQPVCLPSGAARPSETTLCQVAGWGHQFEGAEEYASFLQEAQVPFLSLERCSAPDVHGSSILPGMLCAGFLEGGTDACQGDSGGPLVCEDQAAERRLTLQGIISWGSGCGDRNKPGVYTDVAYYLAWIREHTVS
Experimental: Binding of purified human factor XII from plasma (Calbiochem) or of purified recombinant human tPA to β2GPI purified from human plasma, or to recombinant human β2GPI was tested in an ELISA. Ten μg of factor XII or tPA in PBS was coated onto wells of a Costar 2595 ELISA plate (Cambridge, USA) and incubated with concentration series of the two β2GPI preparations. Binding of β2GPI was assessed with monoclonal antibody 2B2^22.

B1: recombinant β2GPI: recombinant human β2-glycoprotein I made using insect cells (protein)
chain: GRTCPKPDDLPFSTVVPLKTFYEPGEEITYSCKPGYVSRGGMRKFICPLTGLWPINTLKCTPRVCPFAGILENGAVRYTTFEYPNTISFSCNTGFYLNGADSAKCTEEGKWSPELPVCAPIICPPPSIPTFATLRVYKPSAGNNSLYRDTAVFECLPQHAMFGNDTITCTTHGNWTKLPECREVKCPFPSRPDNGFVNYPAKPTLYYKDKATFGCHDGYSLDGPEEIECTKLGNWSAMPSCKASCKVPVKKATVVYQGERVKIQEKFKNGMLHGDKVSFFCKNKEKKCSYTEDAQCIDGTIEVPKCFKEHSSLAFWKTDASDVKPC
ThT fluorescence signal [1]: higher ThT fluorescence signal than native β2GPI purified from plasma | binding to factor XII [2]: bind
